Like-named read-outs stand apart in the source and are kept apart here.
T1: human CD276 expressed on the cell surface (CHO-huCD276) (Homo sapiens, UniProt Q5ZPR3)
T1 construct: expressed in transfected cells; host or cells: CHO cells
T1 sequence (Q5ZPR3 29-534): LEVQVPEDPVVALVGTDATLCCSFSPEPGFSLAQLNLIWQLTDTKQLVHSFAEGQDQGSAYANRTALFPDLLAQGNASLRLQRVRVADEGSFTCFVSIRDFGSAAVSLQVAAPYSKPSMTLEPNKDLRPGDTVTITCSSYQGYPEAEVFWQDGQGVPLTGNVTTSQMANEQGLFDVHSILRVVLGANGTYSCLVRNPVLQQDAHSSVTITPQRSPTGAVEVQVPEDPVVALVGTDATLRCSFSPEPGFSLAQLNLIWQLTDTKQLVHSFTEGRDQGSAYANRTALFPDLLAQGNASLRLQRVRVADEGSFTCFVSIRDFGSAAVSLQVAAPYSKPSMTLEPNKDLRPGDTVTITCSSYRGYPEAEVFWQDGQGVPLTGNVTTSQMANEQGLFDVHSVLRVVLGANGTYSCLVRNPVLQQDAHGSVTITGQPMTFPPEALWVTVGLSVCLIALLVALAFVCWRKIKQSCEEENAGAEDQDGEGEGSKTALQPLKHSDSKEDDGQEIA

T2: human CD276 Ecto-domain (Homo sapiens, UniProt Q5ZPR3)
T2 construct: The human CD276 soluble extracellular domain was covalently immobilized onto a sensor chip (CM5)
T2 sequence (Q5ZPR3 29-466 limits assumed): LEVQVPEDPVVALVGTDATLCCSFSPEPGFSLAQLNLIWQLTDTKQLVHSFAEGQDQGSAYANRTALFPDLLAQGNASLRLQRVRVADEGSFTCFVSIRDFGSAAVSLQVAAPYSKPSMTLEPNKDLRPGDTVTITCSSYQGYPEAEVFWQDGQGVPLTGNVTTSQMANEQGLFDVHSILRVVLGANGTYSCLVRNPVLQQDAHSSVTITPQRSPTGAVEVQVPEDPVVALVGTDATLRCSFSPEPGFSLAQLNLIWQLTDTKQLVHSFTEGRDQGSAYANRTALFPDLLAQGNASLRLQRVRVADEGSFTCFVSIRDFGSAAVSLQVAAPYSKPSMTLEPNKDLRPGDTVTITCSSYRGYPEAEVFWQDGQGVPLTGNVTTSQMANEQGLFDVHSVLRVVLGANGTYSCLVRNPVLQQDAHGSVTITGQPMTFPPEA

T3: mouse CD276 expressed on the cell surface (CHO-msCD276) (Mus musculus, UniProt Q8VE98)
T3 construct: expressed in transfected cells; host or cells: CHO cells
T3 sequence (Q8VE98 29-316): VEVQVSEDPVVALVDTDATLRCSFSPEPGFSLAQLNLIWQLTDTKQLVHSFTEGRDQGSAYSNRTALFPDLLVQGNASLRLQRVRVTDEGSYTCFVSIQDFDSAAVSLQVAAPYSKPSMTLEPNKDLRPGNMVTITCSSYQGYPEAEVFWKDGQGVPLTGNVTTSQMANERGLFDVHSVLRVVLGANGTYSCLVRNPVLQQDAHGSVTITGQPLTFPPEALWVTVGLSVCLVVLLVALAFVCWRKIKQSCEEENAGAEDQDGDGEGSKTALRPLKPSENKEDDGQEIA

B1: m8524: anti-CD276 antibody clone, heavy chain comprising SEQ ID NO: 26 and light chain comprising SEQ ID NO: 27 (antibody, V domains shown)
VH: QVQLQQSGAEVKKPGSSVKVSCKASGGTFSSYAISWVRQAPGQGLEWMGGIIPILGIANYAQKFQGRVTITADESTSTAYMELSSLRSEDTAVYYCARGGSGSYHMDVWGKGTTVTVSS
VL: EIVLTQSPATLSLSPGERATLSCRASQSVSSYLAWYQQKPGQAPRLLIYDASNRATGIPARFSGSGSGTDFTLTISSLEPEDFAVYYCQQRSNWPPRITFGQGTRLEIK
B2: m8524-ADC: m8524 antibody conjugated to MMAE via a linking moiety; n is 2, 4, 6, or 8 (conjugate)
VH: QVQLQQSGAEVKKPGSSVKVSCKASGGTFSSYAISWVRQAPGQGLEWMGGIIPILGIANYAQKFQGRVTITADESTSTAYMELSSLRSEDTAVYYCARGGSGSYHMDVWGKGTTVTVSS
VL: EIVLTQSPATLSLSPGERATLSCRASQSVSSYLAWYQQKPGQAPRLLIYDASNRATGIPARFSGSGSGTDFTLTISSLEPEDFAVYYCQQRSNWPPRITFGQGTRLEIK

Columns and labels:
[1] = test system: human CD276-AP fusion protein; experiment: ELISA binding assay, human CD276; conditions: scFv-Fc fusion protein in culture medium, serially diluted; CD276-AP coated at 2 μg/ml; FIG. 1A
Procedure: (§1) The scFv-encoding inserts of the unique clones were digested with SfiI and ligated into modified pSecTag bearing the same set of SfiI sites and Fc-Avi tag for soluble expression. These constructs were transfected into 293T cells for expression following the manufacturer's protocol. After 72 hr of growth, the scFv-Fc fusion proteins in the culture medium were used for the ELISA binding assay.
(§2) 50 μl of the diluted human (FIG. 1A) or mouse (FIG. 1B) CD276-AP fusion protein in PBS at 2 μg/ml was coated in a 96-well plate at 4° C. overnight. Transiently expressed scFv-Fc fusion protein in the culture medium was serially diluted and added into the target protein coated wells. After washing, a 1:3000 diluted horseradish peroxidase (HRP) conjugated goat anti-human IgG antibody was added for 1 hr at RT. After washing, 3, 3, 5, 5′-Tetramethylbenzidine (TMB) substrate was added, and the optical density (O.D.) was read at 450 nm.

[2] = target: T1, human CD276 expressed on the cell surface (CHO-huCD276); experiment: Flow cytometry binding to CHO cells expressing human CD276; type: cell-based; conditions: scFv-Fc, 1 μg/100 μl, FIG. 4
Procedure: (§3) Chinese hamster ovary (CHO) cells were untransduced or transduced to express mouse CD276 or human CD276. The cells were cultured with 1 μg/100 μl of the anti-CD276 scFv-Fc m8524 (m276) (SEQ ID NOs: 26 and 27) (primary antibody) and fluorescein isothiocyanate (FITC) Gt anti-human antibody (H+L) (as a secondary antibody). The binding of the anti-CD276 scFv-Fc m8524 (m276) to mouse or human CD276 expressed on the cell surface was measured by flow cytometry.

HEK 293 cells (293) = experiment: Cell viability of untransduced HEK 293 cells
Procedure: (§4) HEK 293 cells (293) or HEK 293 cells transduced with CD276 (293/CD276) were treated with MMAE alone, m8524 (m276) (SEQ ID NOs: 26 and 27) antibody alone, m825 (irrelevant control antibody)-ADC, or m8524-ADC. The drug of the ADCs was MMAE.

293/CD276 cells = experiment: Cell viability of HEK 293 cells transduced with CD276
Procedure: as §4

[3] = test system: mouse CD276-AP fusion protein; experiment: ELISA binding assay, mouse CD276; conditions: scFv-Fc fusion protein in culture medium, serially diluted; CD276-AP coated at 2 μg/ml; FIG. 1B
Procedure: as §1, §2

human CD276 Ecto-domain = target: T2, human CD276 Ecto-domain; experiment: Affinity determination by surface plasmon resonance (Biacore X100); type: binding; conditions: scFv m8524; immobilized human CD276 soluble extracellular domain; 1:1 Langmuir fit; 25° C; FIG. 2
Procedure: Binding affinities of human anti-CD276 scFv m8524 to human CD276 Ecto-domain were analyzed by surface plasmon resonance technology using a Biacore X100 instrument (GE healthcare). The human CD276 soluble extracellular domain was covalently immobilized onto a sensor chip (CM5) using carbodiimide coupling chemistry. A control reference surface was prepared for nonspecific binding and refractive index changes. For analysis of the kinetics of interactions, varying concentrations of […] were injected at a flow rate of […] using running buffer containing 10 mM HEPES, 150 mM NaCl, 3 mM EDTA, and 0.05% Surfactant P-20 (pH 7.4). The association and dissociation phase data were fitted simultaneously to a 1:1 Langumir global model, using the nonlinear data analysis program BIAevaluation 3.2. All of the experiments were done at 25° C. The affinity of the antibody m8524 (m276) (comprising a heavy chain comprising SEQ ID NO: 26 and a light chain comprising SEQ ID NO: 27) is shown in FIG. 2.

[4] = target: T3, mouse CD276 expressed on the cell surface (CHO-msCD276); experiment: Flow cytometry binding to CHO cells expressing mouse CD276; type: cell-based; conditions: scFv-Fc, 1 μg/100 μl, FIG. 4
Procedure: as §3

[5] = test system: HT29 human colorectal adenocarcinoma xenografts; experiment: HT29 human colorectal adenocarcinoma xenografts in athymic nude mice; type: in vivo; conditions: 1, 3 or 10 mpk twice a week for three weeks; FIG. 10
Procedure: Athymic nude mice bearing HT29 human colorectal adenocarcinoma xenografts were treated with control (vehicle), m8524 (m276) (SEQ ID NOs: 26 and 27) alone (10 mg/kg (mpk)), or m8524 (m276)-MMAE ADCs at various dosages (1 mpk, 3 mpk, or 10 mpk) twice a week for three weeks. Tumor volume was measured at various time points after administration.

[6] = test system: KM12 human colon carcinoma xenografts; experiment: KM12 human colon carcinoma xenografts in athymic nude mice; type: in vivo; conditions: 1, 3 or 10 mpk twice weekly for 3 weeks, 2 day break, FIG. 11
Procedure: Athymic nude mice bearing KM12 human colon carcinoma xenografts were treated with control (vehicle), m8524 (m276) (SEQ ID NOs: 26 and 27) alone (10 mg/kg (mpk)), or m8524 (m276)-MMAE ADCs at various dosages (1 mpk, 3 mpk, or 10 mpk) twice weekly for 3 weeks, followed by a 2 day break, followed by another dose twice weekly for 3 weeks. Tumor volume was measured at various time points after administration.

[7] = test system: MDA-MB231 human breast cancer cells (mammary fat pad); experiment: MDA-MB231 human breast cancer orthotopic xenografts in athymic nude mice; type: in vivo; conditions: 1 mpk or 10 mpk twice weekly for 3 weeks; FIG. 16
Procedure: MDA-MB231 human breast cancer cells were implanted in the mammary fat pad of athymic nude mice (orthotopic model). Tumor-bearing mice were treated with control (vehicle), m8524 (m276) (SEQ ID NOs: 26 and 27) alone (10 mg/kg (mpk)), or m8524 (m276)-MMAE ADCs (at a dose of 1 mpk or 10 mpk) twice weekly for 3 weeks. Tumor volume was measured at various time points after administration.

HCT116 cells = experiment: In vitro cell viability, HCT116; type: cell-based, human; conditions: various concentrations (nM), FIG. 13
HT29 cells = experiment: In vitro cell viability, HT29; type: cell-based, human; conditions: various concentrations (nM), FIG. 13
[8] = test system: OVCAR3 human ovarian xenografts; experiment: OVCAR3 human ovarian xenografts in SCID mice; type: in vivo; conditions: 1, 3 or 10 mpk on days 1, 4, 8 and 11; FIGS. 12 and 15
Procedure: SCID mice bearing OVCAR3 human ovarian xenografts were treated with control (vehicle), m8524 (m276) (SEQ ID NOs: 26 and 27) alone (10 mg/kg (mpk)), MMAE alone (0.2 mpk), or m8524 (m276)-MMAE ADCs at various dosages (1 mpk, 3 mpk, or 10 mpk) on days 1, 4, 8 and 11. Tumor volume was measured at various time points after administration. The results are shown in FIG. 12 (up to Day 11) and FIG. 15 (up to Day 53).

[9] = test system: HCT-116 human colon cancer xenografts; experiment: HCT-116 human colon cancer xenografts in athymic nude mice; type: in vivo; conditions: 1, 3, 10 or 30 mpk twice a week for three weeks; FIGS. 8 and 9
Procedure: Athymic nude mice bearing HCT-116 human colon cancer xenografts were treated with control (vehicle), m8524 (m276) (SEQ ID NOs: 26 and 27) alone (30 mg/kg (mpk)), or m8524 (m276)-MMAE ADCs at various dosages (1 mpk, 3 mpk, 10 mpk, or 30 mpk) twice a week for three weeks. Tumor volume was measured at various time points after administration.

OVCAR3 cells = experiment: In vitro cell viability, OVCAR3; type: cell-based, human; conditions: various concentrations (nM), FIG. 13

Molecule	binding to human CD276 (OD at 450 nm, ELISA) [1]	binding to human CD276 expressed on the cell surface (flow cytometry) [2]	cytotoxicity (cell viability, % of control) (HEK 293 cells (293))	cytotoxicity (cell viability, % of control) (293/CD276 cells)	binding to mouse CD276 (OD at 450 nm, ELISA) [3]	Kd (human CD276 Ecto-domain) [nM]	binding to mouse CD276 expressed on the cell surface (flow cytometry) [4]	tumor volume as compared to control or m8524 (m276) alone [5]	cytotoxicity (cell viability, % of control) (HEK 293 cells (293); 293 cells (low CD276), various concentrations (nM), FIG. 7)	tumor volume as compared to control or m8524 (m276) alone [6]	tumor volume as compared to control or m8524 (m276) alone [7]	cell viability (HCT116 cells)	cell viability (HT29 cells)	cytotoxicity (cell viability, % of control) (293/CD276 cells; 293/CD276 cells (high CD276), various concentrations (nM), FIG. 7)	selectivity for CD276-expressing cells (293/CD276 cells; 293/CD276 versus 293 cells, FIG. 7)	tumor volume as compared to control, MMAE alone, or m8524 (m276) alone [8]	tumor volume as compared to control or m8524 (m276) alone [9]	cell viability (OVCAR3 cells)
B1	bound	bound	resistant to killing	resistant to killing	bound	0.049	bound											
B2								decreased	selectively cytotoxic	decreased	decreased	decreased	decreased	selectively cytotoxic	toxicity corresponding to CD276 expression levels	decreased	decreased	decreased

— US11851498B2, “Anti-CD276 antibodies (B7H3)” (THE UNITED STATES OF AMERICA, as represented by THE …, priority 2014, dated 2023)
